According to article PMC7984374:

Molecular target: fluorescein-labeled FITC-casein
Experiment: fluorescence polarisation

Kd: 560 nM
Substance: ClpB_(K-12) (from UniProt P63284 1-857) (enzyme)
